{
  "source": "patent US20070071744A1",
  "about": "(published 2007)",
  "assay_in_all_cases": "PepSpot peptide array",
  "key": {"peptide 103": {"molecular_target": "T1, peptide 103 (human)", "T1 peptide": "Ac-TSVTPSRLPTEPP", "description": "(§1) The peptides were synthesized on a cellulose membrane in a stepwise manner resulting in a defined arrangement (peptide array) and are covalently bound to the cellulose membrane. Binding assays were performed directly on the peptide array. In general an antigen peptide array is incubated with blocking buffer for several hours to reduce non-specific binding of proteins or antibodies. It follows the incubation with a primary (antigen peptide-binding) antibody in blocking buffer and an incubation with a horseradish peroxidase (HRP)-labelled secondary antibody, which binds selectively the primary antibody. Alternatively a HRP-labelled primary antibody in blocking buffer can be used.\n(§2) A short T(Tween)-TBS-buffer washing directly after the incubation of the antigen peptide array with the secondary protein or antibody or the HRP-labelled primary antibody followed by the first chemiluminescence experiment is made to get an first overview which antigen peptides do bind the primary antibody. Several buffer washing steps follow (T-TBS- and TBS-buffer) to reduce false positive binding (unspecific antibody binding to the cellulose membrane itself). After these washing steps the final chemiluminescence analysis is performed. The data were analysed with an imaging system showing the signal intensity (Light units, LU) as single measurements for each peptide. In order to evaluate non-specific binding of secondary antibodies, incubations using the secondary antibody have to be performed in the absence of the primary antibody as control incubation."}, "peptide 104": {"molecular_target": "T2, peptide 104 (human)", "T2 peptide": "Ac-VTPSRLPTEPPSS", "description": "as §1, §2"}, "peptide 108": {"molecular_target": "T3, peptide 108 (human)", "T3 peptide": "Ac-EPPSSVAEFSEAT", "description": "as §1, §2"}, "peptide 109": {"molecular_target": "T4, peptide 109 (human)", "T4 peptide": "Ac-PSSVAEFSEATAE", "description": "as §1, §2"}, "peptide 11": {"molecular_target": "T5, peptide 11 (human)", "T5 construct": "also called QSGPLPKPSLQAL", "T5 peptide": "Ac-QSGPLPKPSLQAL", "description": "as §1, §2"}, "peptide 110": {"molecular_target": "T6, peptide 110 (human)", "T6 peptide": "Ac-SVAEFSEATAELT", "description": "as §1, §2"}, "peptide 119": {"molecular_target": "T7, peptide 119 (human)", "T7 peptide": "Ac-KVFTTETSRSITT", "description": "as §1, §2"}, "peptide 122": {"molecular_target": "T8, peptide 122 (human)", "T8 peptide": "Ac-TSRSITTSPKESD", "description": "as §1, §2"}, "peptide 128": {"molecular_target": "T9, peptide 128 (human)", "T9 peptide": "Ac-DSPAGPARQYYTK", "description": "as §1, §2"}, "peptide 130": {"molecular_target": "T10, peptide 130 (human)", "T10 peptide": "Ac-GPARQYYTKGNGG", "description": "as §1, §2"}, "peptide 131": {"molecular_target": "T11, peptide 131 (human)", "T11 peptide": "Ac-ARQYYTKGNGGRE", "description": "as §1, §2"}, "peptide 15": {"molecular_target": "T12, peptide 15 (human)", "T12 construct": "also called SLQALPSSLVPLE", "T12 peptide": "Ac-SLQALPSSLVPLE", "description": "as §1, §2"}, "peptide 18": {"molecular_target": "T13, peptide 18 (human)", "T13 peptide": "Ac-SSLVPLEKPVTLR", "description": "as §1, §2"}, "peptide 2": {"molecular_target": "T14, peptide 2 (human, cysteine pairing not given here)", "T14 peptide": "Ac-PSPTALFCLGLCL", "description": "as §1, §2"}, "peptide 21": {"molecular_target": "T15, peptide 21 (human)", "T15 peptide": "Ac-EKPVTLRCQGPPG", "description": "as §1, §2"}, "peptide 29": {"molecular_target": "T16, peptide 29 (human)", "T16 peptide": "Ac-YRLEKLSSSRYQD", "description": "as §1, §2"}, "peptide 32": {"molecular_target": "T17, peptide 32 (human)", "T17 peptide": "Ac-SSSRYQDQAVLFI", "description": "as §1, §2"}, "peptide 36": {"molecular_target": "T18, peptide 36 (human)", "T18 peptide": "Ac-AVLFIPAMKRSLA", "description": "as §1, §2"}, "peptide 37": {"molecular_target": "T19, peptide 37 (human)", "T19 peptide": "Ac-LFIPAMKRSLAGR", "description": "as §1, §2"}, "peptide 42": {"molecular_target": "T20, peptide 42 (human)", "T20 peptide": "Ac-AGRYRCSYQNGSL", "description": "as §1, §2"}, "peptide 43": {"molecular_target": "T21, peptide 43 (human)", "T21 peptide": "Ac-RYRCSYQNGSLWS", "description": "as §1, §2"}, "peptide 44": {"molecular_target": "T22, peptide 44 (human)", "T22 peptide": "Ac-RCSYQNGSLWSLP", "description": "as §1, §2"}, "peptide 46": {"molecular_target": "T23, peptide 46 (human)", "T23 peptide": "Ac-QNGSLWSLPSDQL", "description": "as §1, §2"}, "peptide 49": {"molecular_target": "T24, peptide 49 (human)", "T24 peptide": "Ac-SLPSDQLELVATG", "description": "as §1, §2"}, "peptide 53": {"molecular_target": "T25, peptide 53 (human)", "T25 peptide": "Ac-LVATGVFAKPSLS", "description": "as §1, §2"}, "peptide 58": {"molecular_target": "T26, peptide 58 (human)", "T26 peptide": "Ac-SLSAQPGPAVSSG", "description": "as §1, §2"}, "peptide 59": {"molecular_target": "T27, peptide 59 (human)", "T27 peptide": "Ac-SAQPGPAVSSGGD", "description": "as §1, §2"}, "peptide 63": {"molecular_target": "T28, peptide 63 (human)", "T28 peptide": "Ac-SSGGDVTLQCQTR", "description": "as §1, §2"}, "peptide 64": {"molecular_target": "T29, peptide 64 (human)", "T29 peptide": "Ac-GGDVTLQCQTRYG", "description": "as §1, §2"}, "peptide 66": {"molecular_target": "T30, peptide 66 (human)", "T30 peptide": "Ac-TLQCQTRYGFDQF", "description": "as §1, §2"}, "peptide 67": {"molecular_target": "T31, peptide 67 (human)", "T31 construct": "also called QCQTRYGFDQFAL", "T31 peptide": "Ac-QCQTRYGFDQFAL", "description": "as §1, §2"}, "peptide 69": {"molecular_target": "T32, peptide 69 (human)", "T32 peptide": "Ac-RYGFDQFALYKEG", "description": "as §1, §2"}, "peptide 74": {"molecular_target": "T33, peptide 74 (human)", "T33 peptide": "Ac-KEGDPAPYKNPER", "description": "as §1, §2"}, "peptide 76": {"molecular_target": "T34, peptide 76 (human)", "T34 peptide": "Ac-PAPYKNPERWYRA", "description": "as §1, §2"}, "peptide 86": {"molecular_target": "T35, peptide 86 (human)", "T35 peptide": "Ac-TAAHSGTYRCYSF", "description": "as §1, §2"}, "peptide 89": {"molecular_target": "T36, peptide 89 (human)", "T36 peptide": "Ac-TYRCYSFSSRDPY", "description": "as §1, §2"}, "peptide 9": {"molecular_target": "T37, peptide 9 (human)", "T37 peptide": "Ac-RVPAQSGPLPKPS", "description": "as §1, §2"}, "peptide 91": {"molecular_target": "T38, peptide 91 (human)", "T38 peptide": "Ac-YSFSSRDPYLWSA", "description": "as §1, §2"}, "peptide 93": {"molecular_target": "T39, peptide 93 (human)", "T39 peptide": "Ac-SRDPYLWSAPSDP", "description": "as §1, §2"}, "peptide 96": {"molecular_target": "T40, peptide 96 (human)", "T40 peptide": "Ac-WSAPSDPLELVVT", "description": "as §1, §2"}, "peptide 97": {"molecular_target": "T41, peptide 97 (human)", "T41 peptide": "Ac-APSDPLELVVTGT", "description": "as §1, §2"}},
  "note": "Ends that are not written are not given here.",
  "data": [
    {"binder": "monoclonal antibody hGP 5C4 (antibody, V domains shown, Rat hybridoma antibody (Lou/C rats), heavy chain gamma 2a, light chain kappa; also called ab 5C4; anti-GPVI mAb 5C4) VH: EVKLQESGGGLVQPGRSLKLSCTASGFTFSDYFMSWVRQAPTRGLEWVASISSGGASAYWRDSVKGRFTISRDNAKSALYLQMDSLRSEDTATYFCARGELDFDYWGQGVMVAVSS VL: ADPNSTLLSASVGDRVTLNCTASQNVYKNLAWYQQKLGEAPRLLLYSANSQTGIPSRFSGSGSGPDFTLTISSLQPEDVASYFCQQYYSGNTFGAGTKLELKR", "values": [
      {"measurement": "LU (Light Units)", "setting": "peptide 103", "result": 50, "unit": "LU"},
      {"measurement": "LU (Light Units)", "setting": "peptide 104", "result": 91, "unit": "LU"},
      {"measurement": "LU (Light Units)", "setting": "peptide 108", "result": 12, "unit": "LU"},
      {"measurement": "LU (Light Units)", "setting": "peptide 109", "result": 69, "unit": "LU"},
      {"measurement": "LU (Light Units)", "setting": "peptide 11", "result": 3540, "unit": "LU"},
      {"measurement": "signal to noise ratio", "setting": "peptide 11", "result": "~20", "unit": "ratio"},
      {"measurement": "LU (Light Units)", "setting": "peptide 110", "result": 71, "unit": "LU"},
      {"measurement": "LU (Light Units)", "setting": "peptide 119", "result": 287, "unit": "LU"},
      {"measurement": "LU (Light Units)", "setting": "peptide 122", "result": 195, "unit": "LU"},
      {"measurement": "LU (Light Units)", "setting": "peptide 128", "result": 66, "unit": "LU"},
      {"measurement": "LU (Light Units)", "setting": "peptide 130", "result": 255, "unit": "LU"},
      {"measurement": "LU (Light Units)", "setting": "peptide 131", "result": 289, "unit": "LU"},
      {"measurement": "LU (Light Units)", "setting": "peptide 15", "result": 74, "unit": "LU"},
      {"measurement": "LU (Light Units)", "setting": "peptide 18", "result": 219, "unit": "LU"},
      {"measurement": "LU (Light Units)", "setting": "peptide 2", "result": 79, "unit": "LU"},
      {"measurement": "LU (Light Units)", "setting": "peptide 21", "result": 128, "unit": "LU"},
      {"measurement": "LU (Light Units)", "setting": "peptide 29", "result": 169, "unit": "LU"},
      {"measurement": "LU (Light Units)", "setting": "peptide 32", "result": 319, "unit": "LU"},
      {"measurement": "LU (Light Units)", "setting": "peptide 36", "result": 125, "unit": "LU"},
      {"measurement": "LU (Light Units)", "setting": "peptide 37", "result": 1120, "unit": "LU"},
      {"measurement": "signal to noise ratio", "setting": "peptide 37", "result": "~4", "unit": "ratio"},
      {"measurement": "LU (Light Units)", "setting": "peptide 42", "result": 41, "unit": "LU"},
      {"measurement": "LU (Light Units)", "setting": "peptide 43", "result": 64, "unit": "LU"},
      {"measurement": "LU (Light Units)", "setting": "peptide 44", "result": 9, "unit": "LU"},
      {"measurement": "LU (Light Units)", "setting": "peptide 46", "result": 1, "unit": "LU"},
      {"measurement": "LU (Light Units)", "setting": "peptide 49", "result": 91, "unit": "LU"},
      {"measurement": "LU (Light Units)", "setting": "peptide 53", "result": 359, "unit": "LU"},
      {"measurement": "LU (Light Units)", "setting": "peptide 58", "result": 110, "unit": "LU"},
      {"measurement": "LU (Light Units)", "setting": "peptide 59", "result": 155, "unit": "LU"},
      {"measurement": "LU (Light Units)", "setting": "peptide 63", "result": 2, "unit": "LU"},
      {"measurement": "LU (Light Units)", "setting": "peptide 64", "result": 6, "unit": "LU"},
      {"measurement": "LU (Light Units)", "setting": "peptide 66", "result": 82, "unit": "LU"},
      {"measurement": "LU (Light Units)", "setting": "peptide 67", "result": 62, "unit": "LU"},
      {"measurement": "LU (Light Units)", "setting": "peptide 69", "result": 78, "unit": "LU"},
      {"measurement": "LU (Light Units)", "setting": "peptide 74", "result": 8, "unit": "LU"},
      {"measurement": "LU (Light Units)", "setting": "peptide 76", "result": 78, "unit": "LU"},
      {"measurement": "LU (Light Units)", "setting": "peptide 86", "result": 58, "unit": "LU"},
      {"measurement": "LU (Light Units)", "setting": "peptide 89", "result": 46, "unit": "LU"},
      {"measurement": "LU (Light Units)", "setting": "peptide 9", "result": 1100, "unit": "LU"},
      {"measurement": "LU (Light Units)", "setting": "peptide 91", "result": 67, "unit": "LU"},
      {"measurement": "LU (Light Units)", "setting": "peptide 93", "result": 107, "unit": "LU"},
      {"measurement": "LU (Light Units)", "setting": "peptide 96", "result": 210, "unit": "LU"},
      {"measurement": "LU (Light Units)", "setting": "peptide 97", "result": 147, "unit": "LU"}
    ]}
  ]
}
